Test results published in patent US20190040151A1.

Columns and labels:
[1] = target: HER2 on the surface of N87 (NCI-N87) human gastric carcinoma cells (human) (UniProt P04626); assay: cell-based or functional assay
[2] = target: HER2-ECD (human epidermal growth factor receptor 2-extracellular domain) (human) (UniProt P04626)

Substance | IC50 (pM), cytotoxicity on N87 cells (WST-1) [1] [pM] | EC50 [2] [pM]
IgG1(trastuzumab)-AL1-PE38KDEL (antibody) | 498 | 
scFv(trastuzumab)-PE38KDEL |  | 150
